Reference: patent US7655420B2, “Methods to increase or decrease bone density” (Celltech R & D, Inc., priority 2002, dated 2010)
“Also recorded” adds a separate entry of the source.

Assays:
[1] = system: alkaline phosphatase (ALP) activity in hMSC cells; assay: alkaline phosphatase activity in differentiating hMSC cells; assay type: cell-based, human; conditions: for basal alkaline phosphatase activity, increasing concentrations (dose-dependent) / ALP activity: hMSC cells, Osteoblast-Inducing media; for ALP activity: 7 days
Experimental: (§1) hMSC cells were plated in 96-well tissue culture dishes at a density of 10,000 cells/cm^2 in Osteoblast-Inducing medium. Partially purified preparations of baculovirus-expressed sclerostin protein were prepared in sterile PBS using NAP-5 columns prior to use. Human sclerostin protein (0 to 30 μg/ml) or an equal volume of Sf9 conditioned media (Control) was added to cultures of hMSC cells at various times after plating (1 day, 8 days, 15 days, or 21 days). The effects of sclerostin on osteoblastic differentiation were assessed by measuring alkaline phosphatase activity (ALP, determined in cell layers using DEAA buffer (Pierce) containing 0.5% NP-40 and 10 mM p-nitrophenylphosphate), synthesis of collagen type I (Prolagen C ELISA), and calcium deposition for mineralization (colorimetric assay of acid lysates of cell layers, Sigma).

[2] = system: type I collagen synthesis in hMSC cells; assay: synthesis of collagen type I in hMSC cells (Prolagen C ELISA); assay type: cell-based, human
Experimental: FIG. 13 illustrates that partially purified preparations of human sclerostin reduce the synthesis of type I collagen by about 50% in cells treated with 10 μg/ml of sclerostin (p<0.001 to control). hMSC cells were cultured in Osteoblast-Inducing media and treated with partially-purified sclerostin protein or proteins purified from Sf9 conditioned media (Control) for 21 days. Sclerostin or Control at the indicated concentrations was added 8 days after plating.
as §1

hMSC cells [3] = assay: apoptosis of hMSC cells by TUNEL staining; assay type: cell-based, human; conditions: Sclerostin 20 μg/ml, 24 hrs
Experimental: (§2) Human mesenchymal (hMSC) cells were plated in Osteoblast-inducing media (Biowhittaker's MSCGM medium supplemented with 100 nM dexamethasone, 50 μg/ml ascorbic acid, and 10 mM β-glycerophosphate) at a density of 10,000 cells/cm^2 in 96-well dishes.
For apoptosis determination by TUNEL staining, cells were treated for 24 hrs with a partially purified preparation of bacculovirus-expressed human sclerostin (20 μg/ml) or an equal volume of a protein preparation purified from Sf9 conditioned media (control). Cells were fixed with paraformaldehyde and processed using Roche's In Situ Cell Death Detection kit.

[4] = system: alkaline phosphatase activity in primary human osteoblasts; assay: histochemical staining for alkaline phosphatase in primary human osteoblasts; assay type: cell-based; conditions: primary human osteoblasts in Inducing media, Sclerostin 20 μg/ml, 7 days
Experimental: Primary human osteoblasts were grown in regular growth media or in Inducing media (to promote differentiation) and then treated with Sclerostin (20 μg/ml) or Control (protein purified from Sf9 conditioned media) for 7 days prior to histochemical staining for alkaline phosphatase activity. Osteoblasts grown in regular growth media expressed low, basal levels of ALP (“No Treatment,” far right panel).

[5] = system: BMP-6 stimulated alkaline phosphatase activity; assay: BMP-6 stimulated alkaline phosphatase activity in mouse mesenchymal C3H10T1/2 cells; assay type: cell-based
Experimental: C3H10T1/2 cells (ATCC Deposit No. CCL-226) were plated in 96-well dishes at a density of 25,000 cells per well in complete growth medium (DMEM with high glucose and glutamine supplemented with 10% FCS, 1% penicillin/streptomycin, 0.1 mM non-essential amino acids, 1 mM sodium pyruvate, 55 μM β-mercaptoethanol, and 20 mM HEPES, pH 7.3). C3H10T1/2 cells were used in a short-term (72 hr) assay to determine the effects of human sclerostin protein on BMP-induced ALP activity. Partially purified preparations of bacculovirus-expressed sclerostin protein were prepared in sterile PBS using NAP-5 columns prior to use. Sclerostin protein (0 to 50 μg/ml) or an equal volume of Sf9 conditioned media (control) was pre-incubated with 500 ng/ml BMP-6 for 1 hr prior to addition to cells. For comparison, similar incubations were carried out with anti-BMP-6 antibody and noggin. Cells were harvested 72 hrs later for determination of ALP activity.
To test the specificity of the sclerostin effect, human sclerostin that was synthesized with a FLAG tag, was pre-incubated for 2 hrs at 4° C. with an anti-FLAG antibody coupled to agarose beads. The mixture was then spun down at 10,000×g for 15 minutes at 4° C. and the supernatant treated as “sclerostin protein” in the above assay.

hMSC cells [6] = assay: CellTiterGlo viability assay of hMSC cells; assay type: cell-based, human; conditions: Osteoblast-Inducing media, increasing amounts of sclerostin, 1 week, versus control
Experimental: as §2
For cell viability assays, cells were treated with a partially purified preparation of bacculovirus-expressed human sclerostin (0 to 20 μg/ml) or an equal volume of a protein preparation purified from Sf9 conditioned media (control) for 1 week. Sclerostin and control were refreshed upon media change. Cells were then lysed and processed using Promega's CellTiterGlo Luminescence Viability Assay.

hMSC cells [7] = assay: apoptosis of hMSC cells by histone-associated DNA fragmentation ELISA; assay type: cell-based, human; conditions: increasing amounts of sclerostin, 24 hrs
Experimental: as §2
(§3) For apoptosis assays, cells were treated with sclerostin or commercially available preparations of the BMP antagonists noggin, chordin, gremlin or twisted gastrulation (Tsg) for 24 hours prior to assay for caspase activity. In some experiments, cells were treated for various times with a partially purified preparation of baculovirus-expressed human sclerostin (0 to 30 μg/ml) or an equal volume of a protein preparation purified from Sf9 conditioned media (control) in the absence or presence of Calbiochem's caspase inhibitors. Cells were harvested and processed for apoptosis assays using the Homogeneous Caspase ELISA (Roche) or Cell Death (Histone-Associated DNA Fragmentation, Roche).

[8] = system: caspase activity in hMSC cells; assay: apoptosis of hMSC cells by caspase activity (Homogeneous Caspase ELISA); assay type: cell-based, human; conditions: for time after treatment for which caspase activity remained elevated: hMSC cells treated with sclerostin; for caspase activity: hMSC in osteoblast-inducing media, 20 μg/ml sclerostin or other protein, 24 hours
Experimental: as §2, §3

[9] = system: mineralization (calcium deposition) in hMSC cells; assay: mineralization (calcium deposition) in hMSC cells; assay type: cell-based, human; conditions: for mineralization (calcium deposition), increasing concentrations: hMSC cells, Osteoblast-Inducing media, protein added at 8 days, another 13 days
Experimental: FIG. 12B illustrates that human sclerostin decreases mineralization (calcium deposition) in hMSC cells in a dose-dependent manner. hMSC cells were plated in Osteoblast-Inducing media. Partially-purified sclerostin protein or proteins purified from Sf9 conditioned media (control) were added the next day. Cultures were maintained for 8 days, treated with sclerostin or control proteins and maintained for another 13 days before testing for mineralization. As illustrated, increasing concentrations of sclerostin give rise to diminished mineralization.
as §1

[10] = hMSC cells treated with about 10 to 15 μg/ml of the protein, p<0.001 to control

B1: sclerostin: partially purified baculovirus-expressed human sclerostin protein, SOST gene product (SEQ ID NO:3); also made with a FLAG tag (protein, listed as Homo sapiens)
chain: MQLPLALCLVCLLVHTAFRVVEGQGWQAFKNDATEIIPELGEYPEPPPELENNKTMNRAENGGRPPHHPFETKDVSEYSCRELHFTRYVTDGPCRSAKPVTELVCSGQCGPARLLPNAIGRGKWWRPSGPDFRCIPDRYRAQRVQLLCPGGEAPRARKVRLVASCKCKRLTRFHNQSELKDFGTEAARPQKGRKPRPRARSAKANQAELENAY
modifications: optional FLAG tag
decrease of alkaline phosphatase activity [1, 10]: about 50%
basal alkaline phosphatase activity, increasing concentrations (dose-dependent) [1]: significantly reduced; also recorded: decreased
ALP activity ([1]; protein at 1 μg/ml): decreased
ALP activity ([1]; protein at 5 μg/ml): decreased
basal alkaline phosphatase activity, increasing concentrations (dose-dependent) ([1]; listed as Sclerostin): decreased
basal alkaline phosphatase activity, increasing concentrations (dose-dependent) ([1]; listed as human sclerostin): decreases
reduction of synthesis of type I collagen ([2]; hMSC cells, 10 μg/ml of sclerostin, 21 days, p<0.001 to control): about 50%
synthesis of collagen type I, dose dependence ([2]; hMSC cultures): decreased in a dose-dependent manner
Tunel staining for apoptotic nuclei (hMSC cells [3]): Increased staining for apoptotic nuclei
Tunel staining for apoptotic nuclei (hMSC cells [3]; listed as human sclerostin): undergo apoptosis
amount of ALP expressed (histochemical stain) [4]: marked decrease
stimulatory effect of BMP-6 on alkaline phosphatase activity (antagonism) ([5]; 500 ng/ml BMP-6, 72 hrs): antagonized
antagonism of BMP-6 after immuno-depletion with anti-Flag M2 antibody/agarose complex ([5]; Flag-tagged sclerostin preparation): completely abolished
IC50, decrease of BMP-6 stimulated alkaline phosphatase activity ([5]; pre-incubated with 500 ng/ml BMP-6 for 1 hr, 72 hrs): 10 µg/mL
viability of hMSC cells (hMSC cells [6]): significantly reduced; also recorded: decreases the viability
amounts of histone-DNA fragments (hMSC cells [7]): significantly elevated; also recorded: greater amounts of histone-DNA fragments
time after treatment for which caspase activity remained elevated ([8]; listed as Sclerostin): up to 72 hrs
time after treatment for which caspase activity remained elevated ([8]; listed as human sclerostin): 72 h
caspase activity, increasing amounts (dose-dependent) ([8]; hMSC cells, 24 hrs): significantly elevated; also recorded: increased caspase activity
caspase activity [8]: significantly increased
caspase activity ([8]; listed as Sclerostin): increased
decrease of mineral deposition [9, 10]: about 50%
mineralization (calcium deposition), increasing concentrations ([9]; listed as Sclerostin): decreased
mineralization (calcium deposition), increasing concentrations ([9]; listed as human sclerostin): decreases
